Source: paper PMC5523955

Molecular target: NCP^H2AK15ub (nucleosome core particle with linked H2A-H2B enzymatically ubiquitylated at H2A Lys15) (human) (UniProt P0CG47)
Assay: ITC

Kd: 25.2 nM
Substance: RAD18 (aa 198-240) (from UniProt Q9NS91 198-240) (domain or fragment)
